Results published in the DeepSol protein solubility set.

test: soluble on expression in E. coli; label from the status in PepcDB or PDB records

| Sequence | soluble on expression in E. coli |
| --- | --- |
| MTKTEGKTASAAVKDILLSNPDGLREVIRTVMQEVLEAEMDEALGAAKGERTPERLGYRSGHYGRTLITRVGKLELRVPQDRSGHFSTELFERYQRSERALVATLAEMYVQGVSTRKVKAITEELCGHAFSASSISAINKRLDESLKAFAERSLEEPFAYLILDARYEKVREAGVVMSQAVLIAVGIDWDGRRQILSVEMAGRESRSAWKDFLVRLKGRGLKGVELVVSDDHAGLVAAIGEVIPEAAWQRCYVHFLRNALDHLPRKHGDDCLQELRWLYDRRDLDEAKADLAAWLGKWSVRYPRLTSWVEETIEQTLTFFRLPRQHHKHLKSTNMLERLNEEIRRRTYVVRIFPNTESCLRLVRALAVETHENWMEANRYINMDDLREHKKLALRQAA | not soluble |
| MTKVHVVLRKEDIDEMALADRKVAVVFDVLLATSSITAVLAAGARSVIPVRDAEEAKEIALRLPEGSYELVGEYEGRTIAGFHPPAPLFLQTVCPGKTVVLSTTNGTVAIRRAQPARAVYAASLLNSPAVSEHICRLHQEETIIVICSGSSGRFCLEDFYGAGYFVHCLIEQGINAAELSDSATAAWFFYRQYSDEGKAKEVLSASRVGRWMTAYGLEKEIDYINRHGSLSAVPKLELGPFGLELRNMASTKVAKEGISP | soluble |
| MTKVSIIVPVYNTKNYVPRLLTSIEKQTYTNWELILVDDHSNDGTYELLLEFKDRYPNKVEVLKTPKPRSGPMIGKNMGIEVSSGKFLAFVDSDDWWSETFLKDTVSNIKSFGGVSTEYYDVFEDSDKKVHVKASKHGVVSWEDVLKLKARFGNGNSLLRRKIVENYGIRFPEHLWYSEDIYFYTQYLSVIDRIYVVPSPDFYHLVRGASMVRSDKIKQESKIEQTIRVYEEVCTRIQEISKVSDEVCKLLKSYQMPYSIMTYITSVSDSLGRAEARKLFWKYLDYLKGYRLTRSHQSYLTLLWILDLFIPIRGILRRLIGLEHHHHHH | soluble |
| MTLDECIRLAWKQNPSVRNSVIDIKEARADYMAAVGAFLPRAAVNAETGKRFGRSIDPDTNGYTNETFEEGTVGLDMTLSLFEGFSRIHQVRFRKMNKERSEWALKNRQNELAYQVTDAYYKLILERKLLNLALEQSRLSERYLKQTEAFVELGLKSASDLQEVKARREGDIYRYKSRENTCRLALLHLEQLMNFQPGDTLVIQDTIVEANQLPLLSVPSTETLYAQSLEILPVMRMIDLKRKAARKEYAMAGGTFSPSVYARFTVGSNFYNTVFSARQLRDNIGKYVGIGISFPLLSGLERLTHQRKQKLNLYRLKNEEELEKQQLYTDIEQTLLSLHAGFSEHQQALQQLEAEALVLKESERKWEEGLISVFQLMEARNRFISAKAELVRVRLQVEMMRKLEKYYREGTFL | not soluble |
| MTLFDRKTFDRVLGEWPGVRFVDQWDSHVAKVGDKVFAVLGEREDWRLVVKCSEESFEILTSLEGIAQAPYFAKRKWISIGDHSPLEQEELEHYVRRSYELVAAGLTKKLRGELGIVIDNAPRL | soluble |
| MTLKGRIHSFESFGTLDGPGIRFVVFMQGCPLRCIYCHNRDTWDVNAGSEYTPRQVIDEMMKYIDYIKVSGGGITVTGGEPVLQADFVAEVFRLAKEQGVHTALDTNGFADIEKVERLIKYTDLVLLDIKHAREDKHKIITGVSNEKIKRFALYLSDQGVPIWIRYVLVPGYTDDEDDLKMAADFIKKLKTVEKIEVLPYHNMGAYKWEKLGQKYMLEGVKGPSAQEVEKAKRILSGK | soluble |
| MTLKMGRVKWFNQSEGYGFISPHDGGSDVYVNKTAIANTKNKSLNEGQDVEFSTYRSIHGPSAADVIAF | not soluble |
| MTLLRTTLLSSLLATVVLGASAAPRTEVIPLNYRTADDVMAVAQSVIGSEGKVTAYGNQLIVNAEPAKIRELQSVLQQIDSRPHRLLITVDTSENLQQDSRGYSVDGSASAGNIEIQSGRGEVNGKDRVRIIRRSTDSRSGGSQQVQATEGYPALIQVGQSVPITSTATGPYGQIYSQTEYRNVNRGFYVTATLTGNLVHVTISSSNDRLSQSHPGVIDTQSTDTRVSGKLGEWITLGGVSEQNQADQRGFVRRYSTQGRDDTSLRLKVETLDLEHHHHHH | not soluble |
| MTLMVPFKQVDVFTEKPFMGNPVAVINFLEIDENEVSQEELQAIANWTNLSETTFLFKPSDKKYDYKLRIFTPRSELPFAGHPTIGSCKAFLEFTKNTTATSLVQECKIGAVPITINEGLISFKAPMADYESISSEMIADYEKAIGLKFIKPPALLHTGPEWIVALVEDAETCFNANPNFAMLAHQTKQNDHVGIILAGPKKEAAIKNSYEMRAFAPVINVYEDPVCGSGSVALARYLQEVYKFEKTTDITISEGGRLKRNGLMLASIKKEADNSTSYYIAGHATTVIDGKIKVHHHHHH | soluble |
| MTLNLSVDEVLTTTRSVRKRLDFDKPVPRDVLMECLELALQAPTGSNSQGWQWVFVEDAAKKKAIADVYLANARGYLSGPAPEYPDGDTRGERMGRVRDSATYLAEHMHRAPVLLIPCLKGREDESAVGGVSFWASLFPAVWSFCLALRSRGLGSCWTTLHLLDNGEHKVADVLGIPYDEYSQGGLLPIAYTQGIDFRPAKRLPAESVTHWNGW | soluble |
| MTLQQEIIQALGAKPHINPEEEIRRSVDFLKAYLKTYPFLKSLVLGISGGQDSTLAGKLSQMAIAELREETGDNALQFIAVRLPYGVQADEQDCQDAIAFIQPDRVLTVNIKGAVLASEQALREAGIELSDFVRGNEKARERMKAQYSIAGMTHGVVVGTDHAAEAITGFFTKYGDGGTDINPLHRLNKRQGKQLLAALGCPEHLYKKVPTADLEDDRPSLPDEAALGVTYDNIDDYLEGKTLDPAIAKTIEGWYVKTEHKRRLPITVFDDFWKR | soluble |
| MTLSFRVNPEYAAMSEIVPGLFICGVSALSKDEMKKHKITHIINATTEVPNLRSLGDIQRTKLWLEDTPQTYIYPHLELQSDQIQALIADGGKVLVHCVAGVSRSASICLAFLLKYRCRNLREAYHLMKSKRSMVRPNLGFWRQLIAYEQNVKENAGSVRLVRDEAQPEQLLPDVYLNIAIPARPASPEQDPNMIPDEPRERRNSGFKSKFRPVLEPVMEMAEAVC | not soluble |
| MTMKEKKLKIDISGVDPICNKSKGDDFYDVVNRQLSRRSFLKGGLGVAVSSFMLSPLMAGCTSSKGTARSSAGLGFQAIAGNRTDVVDVPVGYRAQPFLPWGTPLVPGAGEFKTDASNSALDQARQVGSHHDGMHFFPIDVKEGGASSKEGLLVMNHEYVDPQILHASFSPNAPRPQQEVLKEMMAHGVSVAHIIRKPDGEWQLVEGSPYNRRITASTPMQMSGPVAGHDKLVTRFSPDGTKTRGTINNCSHGHTPWGTYLTCEENWAGCFMNDDDTHPREHERYGVNRENSRYYWETATPGLDETLRFNASSTGSTAADDYRNEPNHFGWIVEIDPFNAKSTPVKRSMLGRFAHEGIVFAPAVEGEPLVAYSGDDSRFEYIYKFVSAKPYYKATASGELLNEGTLYVAQFNDDGTGRWLPLDIENSEFQAKASEAGVGFHSQADVLLNTRLAADVMGATKMDRPEWGAVHPTTKEVYFSLTNNTRRTEVQTNAVNPRAENAYGHIVRWSEDNQQSAESFHWDIFLMGGEAGTRTPNAEGKDLTLTSNNQFACPDGLWFDHRGTLWIQTDMSGELLSEGSFGNNGMYAANPESGELKRFLVGPVDCEITGVVTTPDGKTMFVNVQHPGDRLAPGKFSLEHHHHHH | soluble |
| MTMKEVEITAESLAKLTPAKQPNDTTTRVNSLSYGLKGDHMIMSTDDDSMFLYDMNTGLRSRSVNSKKYGCSHVKFASDSMCALHGSTKVDNTIRYLSLTDNKYIRYFQGHDKLVTGINVSPMDDMFLSVAEDKTIRLWDLKTHNCIGLMNLSATPIATFDPEGLLFAAGLDNNIIKLYDLRSFDKGPFSSFGPLENEDNVEWTAMRFSPCGKYIMICTNSSQLLLVDAFTGLIKFTLEEHQNAQKIPLMASFTPESSHIMVGSSDGYIYFYDVETGEIALKTLAPNNQTCHIAEFSPQHFVAATADTKLTLWCASDELKAQAQQS | not soluble |
| MTMVQPSGGGASGRGSSSGLADVIDTILDKGLVIDAFVRVSVVGIEILTIDARIVVASVDTYLRFAEATNRLDLTQTGGKGLPEVLQDTTQGVSKSKTKGIAQGALETAGEKLRDIIGEPEEEEEPAPRRRRRREEE | not soluble |
| MTNAGTTDLSWLPSDADEQLALGFKIVTNAYKTRVTSQEAEIRSLKGQLTEKQEQLSSIQKKYSNLEVQLIESTQRGNQLADENKQLITTIKKLNRDIDRLENLKKAVLNSIQEEHDVEDAHKYYSADDLLQTTAPRTMLEMNGNEDSCQSIINKIVNSDTHNIINGSFNSPYIGNVPLGEKNTDGRAFFRNARSRLSYEQFNQFLSNIKKLNNHQQKREETLKKAQAIFGEANLDLYEEFKVLISKHS | not soluble |
| MTNESEVGVKKAAELLRQGATMLEEACPICKMPLFKLKNGDVVCPVHGKVYIVKSDDEEKIVKRNLQLDEIESILIDGLYLSAKKMKEDPLDSERIIQIIRYLDALERLRKIKINSSE | not soluble |
| MTNISIPGNWQTCDVEAMDGDFDDNMLQFLGSFEEVLPEGVEVETKKGMKKKNKPKKVENTERPEEDAKCVEERRLAKKLRRKEQMAANRKQKKERLAKRKQKEAESSAKKSENATETTTEKPKEQKKRKGGENGDTGKPKKSKKEASKKTDISAWKQFYFLPNEVLEAIEQMGFSEPTEIQSAVLPAAVRDRQDVLGAAETGSGKTLAFGIPLVARLLESSDDSQETESTEVRGPRALIVAPTRELVIQIMKHINALISTTQLIATSIVGGLAQVKQERIISQQRPDIVVATPGRLWAMMQEAETGEFLAEWKDLKCLVVDETDRMVEEGYFAELTHILNKIHEESEKEKLQTLVFSATLTFAKAQDVAEEEKKKAKELSSQQKIQRLIKLTGLRENKHKVIDLTRQMGTAGCLVEARINCGNLLEKDTSLVYLLTRYPGRTIVFVNSIDAARRLYSVLKSVNIDPMILHAKMIQKQRLKNLEKFSESKNAVLLATDVAARGLDIQGIDHVIHYQVPKKVEIYIHRSGRTARASHRGLTVVLVDPPSRQFYMKLCKGLNRMQDLNVFPIDFEPLMNAIKKRVRLASEIDSLGFRCKKIKMSESWFEKAARAADLDYDETRHREMDGLNLEVDTMVQKSRQLQAQLRTELSLPLPRVDGSDSMKTKYITPEIVARLRSVGDNAIDVLNQKIDETKEWKRKSRKATREDEMNSMKKSLKSSQKNKERLAEKKKKEKAAKVTKLSETD | not soluble |
| MTNIWKKNYETAKEVEEFVKKAYELGDVTELELLRAKRERSIAEVKLKVSRSKYEASLKELSRLLAKEVRDVEGELSAGVAMKEVNIDTLPVVLSIKKKIEAIDRQIQLEKALAKPKLATGFVVEESEEGYYGLRGSLTLELPLFYRREGEILQNIAMKKALKRRLEAELLKVKSRLESVKIRLETLQKELEKLEREVIPRAREELALAIKSYKLKAITLLELSDVRRKYYELLINRAELLLDIHRTYSEFIEIGGWRR | not soluble |
| MTNMDNYCVIMGGGIGSRFWPFSRKTLPKQFLDFFGTGRSLLQQTFDRFQKVIPTENILIVTNAMYADLVKEQLPELDEKQILLEPARRNTAPCIAWAAYHIRALNPNANIVVAPSDHLILKEEEFRAAIIKGLEFVSHSEKLLTLGIKPNRPETGYGYIQIDEPTGDGFYKVKTFTEKPELELAKVFVESGEFYWNSGLFMWNVNTIIKAAEILLPELVSKLAPGKNIYATDKEKAFIEENFPACPNVSIDFGIMEKADNVYVSLGDFGWSDLGTWGSLYDLSERDREGNVTLKSHSLIYNGKDNMIVLPKGKLAVIDGLEGYLIAESDNVLLICRKDEEHSIRKYVNDAQMQLGDDFI | not soluble |
| MTNPVDVNLINGIALAFEGDAVYSYYVRRHLIFQGKTKPSQLHRLATRYVSAKAQANLIQAMLEAQLLTEKEEDIYKRGRNTNSHTKAKNADIITYRMSTGFEAIMGYLDMMGQKERLEELIRWCIEYVEKQQLISSLEHHHHHH | soluble |
